The source of these data is publication PMC5900712.

The target in this data set is T1, YanA86D (monomer) (UniProt Q01842 1-499, A86D).
T1 sequence: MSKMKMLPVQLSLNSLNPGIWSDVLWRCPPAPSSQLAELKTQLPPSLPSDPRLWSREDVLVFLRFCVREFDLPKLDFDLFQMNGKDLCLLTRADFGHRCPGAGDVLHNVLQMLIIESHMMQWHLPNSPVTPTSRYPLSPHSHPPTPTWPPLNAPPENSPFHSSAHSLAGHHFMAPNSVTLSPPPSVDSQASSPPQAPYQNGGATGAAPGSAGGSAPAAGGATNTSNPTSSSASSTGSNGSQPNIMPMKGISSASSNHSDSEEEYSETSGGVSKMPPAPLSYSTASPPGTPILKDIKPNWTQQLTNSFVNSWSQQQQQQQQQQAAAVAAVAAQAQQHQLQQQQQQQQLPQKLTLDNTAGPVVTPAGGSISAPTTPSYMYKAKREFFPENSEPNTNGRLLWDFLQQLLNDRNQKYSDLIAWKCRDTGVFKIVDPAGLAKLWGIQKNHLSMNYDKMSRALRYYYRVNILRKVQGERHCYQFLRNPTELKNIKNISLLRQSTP
Kind of data set: competition.

B1: MHE ETS site 6 (dsDNA)
DNA 1: AAATGCTTAAACAGGGAAATCGTCTTGG
DNA 2: CCAAGACGATTTCCCTGTTTAAGCATTT
In the case of B1, the binding result is “no binding”.
